Values of other authors as cited in publication PMC11209288.

Target: inositol 1,4,5-triphosphate receptor (IP3R) (Homo sapiens) (UniProt Q14643)
UniProt Q14643, sequence (Q14643 whole entry): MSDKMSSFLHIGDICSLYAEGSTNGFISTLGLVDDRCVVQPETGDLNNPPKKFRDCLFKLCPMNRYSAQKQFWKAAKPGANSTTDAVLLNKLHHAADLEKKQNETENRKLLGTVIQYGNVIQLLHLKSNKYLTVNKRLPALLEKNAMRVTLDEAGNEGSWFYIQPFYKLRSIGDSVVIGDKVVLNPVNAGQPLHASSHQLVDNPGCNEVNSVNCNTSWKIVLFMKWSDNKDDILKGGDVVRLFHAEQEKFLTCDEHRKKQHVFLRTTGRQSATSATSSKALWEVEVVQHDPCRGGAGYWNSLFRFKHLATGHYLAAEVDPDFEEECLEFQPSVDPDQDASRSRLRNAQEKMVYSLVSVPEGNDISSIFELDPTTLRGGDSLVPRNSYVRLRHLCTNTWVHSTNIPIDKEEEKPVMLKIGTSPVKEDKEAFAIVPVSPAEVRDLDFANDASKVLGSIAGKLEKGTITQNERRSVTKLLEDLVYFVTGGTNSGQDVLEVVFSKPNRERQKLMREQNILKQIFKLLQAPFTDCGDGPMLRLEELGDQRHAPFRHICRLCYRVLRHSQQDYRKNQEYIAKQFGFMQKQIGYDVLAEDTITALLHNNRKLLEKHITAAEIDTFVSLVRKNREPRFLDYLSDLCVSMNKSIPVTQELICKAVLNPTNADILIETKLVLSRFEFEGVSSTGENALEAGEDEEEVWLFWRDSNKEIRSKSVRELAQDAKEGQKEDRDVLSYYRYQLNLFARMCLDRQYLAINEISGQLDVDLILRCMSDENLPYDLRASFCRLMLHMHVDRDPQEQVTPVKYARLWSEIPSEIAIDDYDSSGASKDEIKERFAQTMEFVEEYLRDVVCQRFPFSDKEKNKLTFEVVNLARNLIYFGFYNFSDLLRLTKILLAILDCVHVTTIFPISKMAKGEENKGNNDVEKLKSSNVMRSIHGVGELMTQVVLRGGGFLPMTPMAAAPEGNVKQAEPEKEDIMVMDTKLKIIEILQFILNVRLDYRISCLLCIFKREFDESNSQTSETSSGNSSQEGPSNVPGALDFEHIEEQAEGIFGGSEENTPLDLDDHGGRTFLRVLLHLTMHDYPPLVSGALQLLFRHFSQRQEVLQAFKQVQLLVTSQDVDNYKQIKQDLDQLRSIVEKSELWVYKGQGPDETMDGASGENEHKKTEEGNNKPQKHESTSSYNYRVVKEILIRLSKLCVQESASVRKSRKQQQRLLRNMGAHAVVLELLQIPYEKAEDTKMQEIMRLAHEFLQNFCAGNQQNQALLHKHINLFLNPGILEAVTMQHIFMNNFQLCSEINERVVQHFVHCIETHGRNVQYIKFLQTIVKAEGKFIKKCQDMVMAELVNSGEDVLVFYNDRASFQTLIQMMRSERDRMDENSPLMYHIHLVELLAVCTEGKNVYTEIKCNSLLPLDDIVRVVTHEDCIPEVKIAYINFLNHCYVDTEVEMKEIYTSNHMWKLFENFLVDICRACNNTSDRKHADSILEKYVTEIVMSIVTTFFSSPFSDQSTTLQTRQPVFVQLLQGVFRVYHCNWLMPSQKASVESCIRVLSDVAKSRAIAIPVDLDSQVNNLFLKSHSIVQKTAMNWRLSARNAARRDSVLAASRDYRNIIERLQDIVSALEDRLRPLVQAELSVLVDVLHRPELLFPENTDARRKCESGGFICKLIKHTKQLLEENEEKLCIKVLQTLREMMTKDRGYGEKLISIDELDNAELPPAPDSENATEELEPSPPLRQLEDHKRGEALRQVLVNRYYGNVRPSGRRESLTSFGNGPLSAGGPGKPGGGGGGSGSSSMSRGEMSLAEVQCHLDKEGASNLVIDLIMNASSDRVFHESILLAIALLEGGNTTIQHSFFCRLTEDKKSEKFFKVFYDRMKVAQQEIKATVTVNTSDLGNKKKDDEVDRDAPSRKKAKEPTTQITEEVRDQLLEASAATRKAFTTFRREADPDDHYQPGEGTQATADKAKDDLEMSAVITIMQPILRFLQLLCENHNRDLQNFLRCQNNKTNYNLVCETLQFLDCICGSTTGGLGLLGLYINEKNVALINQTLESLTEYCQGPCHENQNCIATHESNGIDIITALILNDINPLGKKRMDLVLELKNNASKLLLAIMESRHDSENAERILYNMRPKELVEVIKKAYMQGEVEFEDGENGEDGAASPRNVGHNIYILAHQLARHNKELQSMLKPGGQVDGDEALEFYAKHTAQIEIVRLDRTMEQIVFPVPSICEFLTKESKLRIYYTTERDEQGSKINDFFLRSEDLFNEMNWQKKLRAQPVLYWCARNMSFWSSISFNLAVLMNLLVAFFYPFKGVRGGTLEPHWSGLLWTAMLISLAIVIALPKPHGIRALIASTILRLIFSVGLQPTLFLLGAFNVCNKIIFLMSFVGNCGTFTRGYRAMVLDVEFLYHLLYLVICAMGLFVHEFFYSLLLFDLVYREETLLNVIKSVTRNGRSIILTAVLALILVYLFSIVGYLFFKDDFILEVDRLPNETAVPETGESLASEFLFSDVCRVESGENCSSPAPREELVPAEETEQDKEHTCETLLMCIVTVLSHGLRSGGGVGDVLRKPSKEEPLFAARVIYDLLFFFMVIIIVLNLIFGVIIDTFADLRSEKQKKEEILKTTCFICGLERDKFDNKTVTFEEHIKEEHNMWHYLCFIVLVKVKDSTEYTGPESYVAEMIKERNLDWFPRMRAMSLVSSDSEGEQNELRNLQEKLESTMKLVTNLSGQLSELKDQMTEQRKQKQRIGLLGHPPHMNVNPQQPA

Kd: 65 nM
Substance: Bok (from UniProt Q9UMX3)
